Results from the Human Domainome abundance scans (Beltran et al. 2025).

B1: Double-stranded RNA-specific adenosine deaminase, residues 296 to 358; numbered along this chain, P55265 (parent)
chain: MAEIKEKICDYLFNVSDSSALNLAKNIGLTKARDINAVLIDMERQGDVYRQGTTPPIWHLTDK

Variants of: B1
Experiment: abundance fitness (aPCA) (normalised: wild type 0, dead -1); higher = more abundant; growth selection in yeast, the domain comes from the species named
Conditions: Homo sapiens

Abundance fitness: each site, then its substitutions
D10: G -0.514; R 0.051; T -0.157; W -0.297; A -0.021; M -0.44; H 0.011; E 0; F -0.653; S 0.05; I -0.502; Y -0.453; L -0.568; Q 0.051; N 0.085
N26: Y -0.114; Q 0.009; D -0.539; K -0.057; F -0.328; T -0.403; R -0.202; S -0.103; I -0.271; P -0.629; L -0.429; M -0.328; A 0.189; H 0.215; E 0.075; W -0.327; V 0.044; C -0.338; G -0.001
A24: Q -0.171; I -0.552; G -0.495; Y -0.406; C -0.179; R -0.544; F -0.566; T -0.276; E -0.447; M -0.418; L -0.513; W -0.707; P -0.49; D -0.838; V -0.58; K -0.616; N -0.722; H -0.488
I8: K -0.568; D 0.302; V -0.649; G -0.471; R -0.374; A -0.564; T -0.713; W -1.3; N -0.543; L -0.903; F -0.506; H -0.766; E -0.374; Q -0.137; P -0.455; S -0.304
K7: W -0.471; V -0.641; M -0.055; P -0.906; D -0.533; F -0.543; I -0.779; L -0.402; C -1.01; N -0.534; Q -0.938; A -0.348; Y -0.796; R -0.266; G -0.775; S -0.467
N14: W -0.426; P -0.658; T 0.086; S 0.017; V -0.31; R 0.285; E 0.102; F -0.385; D -0.312; M -0.189; K 0.434; H 0.085; G -0.236; A -0.014; Q 0.008; Y 0.045; C -0.215; L -0.121
A20: I -0.68; K -0.606; Q -0.472; V -0.446; W -0.627; L -0.42; Y -0.901; E -0.216; T -0.295; N -0.481; D -0.64; P -0.673; H -0.578; S -0.228; R -0.615; G -0.45; F -0.311
K25: M -0.282; H -0.083; W -0.82; T -0.32; Y -0.626; E -0.124; A -0.213; Q -0.024; L -0.404; N -0.234; D -0.141; S -0.542; C -0.36; P -0.928; I -0.578
L23: V -0.316; S -0.424; F -1.03; Q -1.2; D -0.313; I 0.372; K -0.531; H -0.453; E -0.329; A -0.368; R -0.592; Y -0.678; T -0.421; M -0.374; W -0.682; P -0.299; G -0.403; C -0.474
F13: Q 0.541; P -0.216; M 0.339; H 0.1; R 0.577; K 0.538; I 0.142; V -0.061; S 0.403; C 0.19; A 0.543; N 0.366; Y 0.079; T 0.227; W -0.051
